Results as given in publication PMC10504324, “A microprotein N1DARP encoded by LINC00261 promotes Notch1 intracellular domain (N1ICD) degradation via disrupting USP10-N1ICD interaction to inhibit chemoresistance in Notch1-hyperactivated pancreatic cancer” (Cell Discovery, 2023).
“And” between values parts separate entries of the source, which are not always exact repeats. Equal values may be shown once. Bridge positions count the residues as written; N and C are the ends. Square brackets hold non-standard residues; d marks the D form. Ends that are not written are not given here. S5 = C=CCCC[C@](C)(N)C(=O)O

Tests used:
Capan1 = test: IC50 assay, chemosensitivity to GEM; assay type: cell-based; settings: Homo sapiens, CAPAN-1; Capan1, Vector; Fig. 5j
[1] = test system: metastatic pancreatic cancers; settings: cited from earlier work; for remission in clinical studies: γ-secretase inhibitors, metastatic pancreatic cancers
Source text: The Notch pathway is active in a broad spectrum of human cancers, including breast, colorectal, lung, prostate, glioblastoma, and pancreatic cancer. Notch signaling is positively associated with pancreatic tumor initiation, progression, and drug resistance in both cell lines and genetic mutant mouse models[7],[8]. In preclinical models, pharmacological inhibition of Notch signaling by small molecules designed to affect HES1 transcriptional function (JI051 and JI130)[9] and natural agents targeting the Notch pathway, such as curcumin, genistein, quercetin, and sulforaphane, slowed tumor prol ...

[2] = target: AH2, alpha-helical peptide 2 of N1DARP (human); test: SPR; BIAcore T200 (GE Healthcare); dissociation constant calculated with BIA-evaluation software; which partner was immobilised is not stated
ANK domain of N1ICD = ANK domain of N1ICD (Homo sapiens, UniProt P46531); test: SPR analysis, affinity for ANK domain; assay type: binding; settings: mAH2 compared with AH2, Fig. S8E
Procedure: The binding kinetics between N1DARP or SAH-mAH2-5 and the indicated peptides were analyzed using a SPR assay with a BIAcore T200 instrument (GE Healthcare, Pittsburgh, PA, USA). The dissociation constant was calculated using BIA-evaluation software.
309 was determined using reversed phase HPLC with electrospray ionization mass spectrometric detection.
311 Supplementary Note S1. Generation and modification of N1DARP-derived stapled peptide SAH-
313 To evaluate the therapeutic potential of disrupting the N1ICD-USP10 interaction with N1DARP and
314 define a more druggable target, we simulated the tertiary structure of N1DARP using I-TASSAR, a
315 hierarchical server for protein structure prediction4, and identified two α-helical peptides (AH1 and
316 AH2) (Fig. S8A, left panel).
318 we constructed and purified six subdomains with α-helix secondary structure of ANK, designated from
320 S8B-S8D). To optimize the physicochemical properties of AH2, we first checked the amino acid
322 cancer cells to AH2; therefore, we tried amino acid substitution of Glu32 by Gln32. SPR analysis
324 mAH2 (Fig. S8E). Next, to identify the indispensable amino acids mediating mAH2 and ANK
325 interactions, we substituted each amino acid of mAH2 with Ala, followed by SPR analysis. The results
328 i + 4, or i + 7) and denoted them as stapled α-helices (SAHs). […]

[3] = target: N1ICD (wild type; source not stated) (UniProt P46531); test: co-IP followed by western blotting (band intensity); settings: HEK293T, IgG control 0.00
[4] = target: T1, ANK domain of Notch1 intracellular domain (N1ICD-ANK) (UniProt P46531 1927-2122); test: SPR; BIAcore T200 (GE Healthcare); dissociation constant calculated with BIA-evaluation software; which partner was immobilised is not stated; settings: both partners purified
T1 construct: Notch1, ankyrin repeat (ANK) domain of the intracellular domain; the numbers fit human NOTCH1 (2555 aa); also called ANK repeat

[5] = target: T2, ANK domain of Notch2 intracellular domain (N2ICD-ANK) (UniProt Q04721 1827-2038); test: as above; settings: both partners purified
T2 construct: Notch2, ANK domain of the intracellular domain; position 1827-2038, length 212 aa printed
T2 sequence (looked up): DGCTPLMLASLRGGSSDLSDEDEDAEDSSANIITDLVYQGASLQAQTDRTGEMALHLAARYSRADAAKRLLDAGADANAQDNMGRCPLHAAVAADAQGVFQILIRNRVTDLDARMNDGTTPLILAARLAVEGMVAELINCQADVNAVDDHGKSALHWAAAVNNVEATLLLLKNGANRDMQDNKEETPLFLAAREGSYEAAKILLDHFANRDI

[6] = target: T3, ANK domain of Notch3 intracellular domain (N3ICD-ANK) (UniProt Q9UM47 1838-2000); test: as above; settings: both partners purified
T3 construct: Notch3, ANK domain of the intracellular domain; position 1838-2000, length 163 aa printed
T3 sequence (looked up): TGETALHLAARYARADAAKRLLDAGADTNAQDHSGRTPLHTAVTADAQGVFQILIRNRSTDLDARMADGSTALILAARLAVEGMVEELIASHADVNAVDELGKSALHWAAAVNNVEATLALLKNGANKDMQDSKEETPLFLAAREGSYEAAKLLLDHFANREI

[7] = target: T4, ANK domain of Notch4 intracellular domain (N4ICD-ANK) (UniProt Q99466 1633-1798); test: as above; settings: both partners purified
T4 construct: Notch4, ANK domain of the intracellular domain; position 1633-1798, length 166 aa printed
T4 sequence (looked up): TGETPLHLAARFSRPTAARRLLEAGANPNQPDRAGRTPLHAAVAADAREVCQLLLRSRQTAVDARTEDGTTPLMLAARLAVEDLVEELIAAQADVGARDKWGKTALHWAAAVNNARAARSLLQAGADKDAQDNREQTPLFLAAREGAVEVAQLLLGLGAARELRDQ

[8] = IP: Anti-Flag (N1DARP-Flag), blot: Myc
[9] = IP: Anti-Myc (N1ICD-Myc), blot: Flag

## Nc1ccn([C@@H]2O[C@H](CO)[C@@H](O)C2(F)F)c(=O)n1 [GEM, gemcitabine]
Capan1
  IC50: 44 nM

## O=C(O)CC[C@H]1CC[C@@](c2cc(F)ccc2F)(S(=O)(=O)c2ccc(Cl)cc2)CC1 [MK-0752]
[1]
  remission in clinical studies: no significant remission was observed

## CCC[C@H](N[C@H]1CCc2cc(F)cc(F)c2C1)C(=O)Nc1cn(C(C)(C)CNCC(C)(C)C)cn1 [PF-03084014]
[1]
  remission in clinical studies: no significant remission was observed

## CC(C)(C(=O)NCC(F)(F)C(F)(F)F)C(=O)N[C@@H]1C(=O)Nc2ccccc2-c2ccccc21 [RO4929097]
[1]
  remission in clinical studies: no significant remission was observed

## ANK1, subdomain of the ANK domain of N1ICD (from UniProt P46531 19-2555) (domain or fragment)
[2]
  Kd: 43.4 nM

## ANK2, subdomain of the ANK domain of N1ICD (from UniProt P46531 19-2555) (domain or fragment)
[2]
  Kd: 23300 nM

## ANK3, subdomain of the ANK domain of N1ICD (from UniProt P46531 19-2555) (domain or fragment)
[2]
  Kd: 85800 nM

## ANK4, subdomain of the ANK domain of N1ICD (from UniProt P46531 19-2555) (domain or fragment)
[2]
  Kd: 66100 nM

## ANK5, subdomain of the ANK domain of N1ICD (from UniProt P46531 19-2555) (domain or fragment)
[2]
  Kd: 42800 nM

## ANK6, subdomain of the ANK domain of N1ICD (from UniProt P46531 19-2555) (domain or fragment)
[2]
  Kd: 64200 nM

## mAH2: AH2 with amino acid substitution of Glu32 by Gln32 (YAKRIFYQLLSKQL)
ANK domain of N1ICD
  affinity for ANK after substitution of Glu32 by Gln32: comparable affinity

## tarextumab: fully human IgG2 antibody that inhibits Notch2/3 receptors
[1]; metastatic pancreatic cancer, in combination with gemcitabine (GEM) and paclitaxel
  remission and tolerance, phase II study: remarkable remission and tolerance

## wild-type N1DARP (overexpressed) D41A
[3]; [8]
  response: 0.87
[3]; [9]
  response: 1.07

## wild-type N1DARP (overexpressed) G12A
[3]; [8]
  response: 0.91
[3]; [9]
  response: 0.93

## wild-type N1DARP (overexpressed) L28A
[3]; [8]
  response: 1.01
[3]; [9]
  response: 0.87

## wild-type N1DARP (overexpressed) Y20A
[3]; [8]
  response: 0.26
[3]; [9]
  response: 0.35

## wild-type N1DARP (overexpressed) Y20A; Y34A
[3]; [8]
  response: 0
[3]; [9]
  response: 0

## wild-type N1DARP (overexpressed) Y34A
[3]; [8]
  response: 0.43
[3]; [9]
  response: 0.31

## YAKRI[S5]YQLLSK[S5]L (staple 6-13) [SAH-mAH2-5, N1DARP-derived stapled peptide]
[4]
  Kd: 0.898 nM
[5]
  Kd: 539 nM
[6]
  Kd: 69 nM
[7]
  Kd: 35.2 nM

B1: mAH2, AH2 of N1DARP with Glu32 substituted by Gln32 (peptide)
peptide: YAKRIFYQLLSKQL
notes: N1DARP (41 aa, encoded by LINC00261) residues 20-33 with E32Q; also called modified AH2; substituted AH2; source: synthetic peptide (Chinese Peptide, Inc., Hangzhou; > 98% purity)
[4]
  Kd: 60.4 nM and 45.2 nM

B2: mAH2-14, alanine mutant of mAH2 (Leu33 to Ala) (peptide)
peptide: YAKRIFYQLLSKQA
notes: N1DARP residues 20-33 with E32Q and position 14 of the peptide (Leu33) to Ala; source: synthetic peptide (Chinese Peptide, Inc., Hangzhou; > 98% purity)
[4]
  Kd: 5960 nM

B3: mAH2-10, alanine mutant of mAH2 (peptide)
peptide: YAKRIFYQLASKQL
notes: N1DARP residues 20-33 with E32Q and position 10 of the peptide (L29) to Ala; source: synthetic peptide (Chinese Peptide, Inc., Hangzhou; > 98% purity)
[4]
  Kd: 55.5 nM

B4: mAH2-4, alanine mutant of mAH2 (peptide)
peptide: YAKAIFYQLLSKQL
notes: N1DARP residues 20-33 with E32Q and position 4 of the peptide (R23) to Ala; source: synthetic peptide (Chinese Peptide, Inc., Hangzhou; > 98% purity)
[4]
  Kd: 74.5 nM

B5: AH2, alpha-helical peptide 2 of N1DARP (peptide)
peptide: YAKRIFYQLLSKEL
notes: N1DARP, 41-aa microprotein encoded by LINC00261 (ORF12); source: synthetic peptide (Chinese Peptide, Inc., Hangzhou; > 98% purity); 'purified AH2 peptide'
[4]
  Kd: 60.4 nM

B6: mAH2-12, alanine mutant of mAH2 (peptide)
peptide: YAKRIFYQLLSAQL
notes: N1DARP residues 20-33 with E32Q and position 12 of the peptide (K31) to Ala; source: synthetic peptide (Chinese Peptide, Inc., Hangzhou; > 98% purity)
[4]
  Kd: 78.2 nM

B7: mAH2-13, alanine mutant of mAH2 (peptide)
peptide: YAKRIFYQLLSKAL
notes: N1DARP residues 20-33 with position 13 of the peptide (residue 32: Glu in N1DARP, Gln in mAH2) to Ala; source: synthetic peptide (Chinese Peptide, Inc., Hangzhou; > 98% purity)
[4]
  Kd: 99 nM

B8: mAH2-8, alanine mutant of mAH2 (peptide)
peptide: YAKRIFYALLSKQL
notes: N1DARP residues 20-33 with E32Q and position 8 of the peptide (Q27) to Ala; source: synthetic peptide (Chinese Peptide, Inc., Hangzhou; > 98% purity)
[4]
  Kd: 87.4 nM

B9: mAH2-9, alanine mutant of mAH2 (Leu28 to Ala) (peptide)
peptide: YAKRIFYQALSKQL
notes: N1DARP residues 20-33 with E32Q and position 9 of the peptide (Leu28) to Ala; source: synthetic peptide (Chinese Peptide, Inc., Hangzhou; > 98% purity)
[4]
  Kd: 288 nM

B10: mAH2-3, alanine mutant of mAH2 (peptide)
peptide: YAARIFYQLLSKQL
notes: N1DARP residues 20-33 with E32Q and position 3 of the peptide (K22) to Ala; source: synthetic peptide (Chinese Peptide, Inc., Hangzhou; > 98% purity)
[4]
  Kd: 51.1 nM

B11: mAH2-6, alanine mutant of mAH2 (peptide)
peptide: YAKRIAYQLLSKQL
notes: N1DARP residues 20-33 with E32Q and position 6 of the peptide (F25) to Ala; source: synthetic peptide (Chinese Peptide, Inc., Hangzhou; > 98% purity)
[4]
  Kd: 63.6 nM

B12: mAH2-1, alanine mutant of mAH2 (peptide)
peptide: AAKRIFYQLLSKQL
notes: N1DARP residues 20-33 with E32Q and position 1 of the peptide (Y20) to Ala; source: synthetic peptide (Chinese Peptide, Inc., Hangzhou; > 98% purity)
[4]
  Kd: 96.1 nM

B13: mAH2-5, alanine mutant of mAH2 (peptide)
peptide: YAKRAFYQLLSKQL
notes: N1DARP residues 20-33 with E32Q and position 5 of the peptide (I24) to Ala; source: synthetic peptide (Chinese Peptide, Inc., Hangzhou; > 98% purity)
[4]
  Kd: 57.5 nM

B14: mAH2-11, alanine mutant of mAH2 (peptide)
peptide: YAKRIFYQLLAKQL
notes: N1DARP residues 20-33 with E32Q and position 11 of the peptide (S30) to Ala; source: synthetic peptide (Chinese Peptide, Inc., Hangzhou; > 98% purity)
[4]
  Kd: 83.9 nM

## [S5]AKR[S5]FYQLLSKQL (staple 1-5) [SAH-mAH2-1, stapled alpha-helix of mAH2]
[4]
  Kd: 134 nM

B15: AH1, alpha-helical peptide 1 of N1DARP (peptide)
peptide: LLEKKRQY
notes: N1DARP, 41-aa microprotein encoded by LINC00261 (ORF12); source: synthetic peptide (Chinese Peptide, Inc., Hangzhou; > 98% purity)
[4]
  Kd: 213 nM

## Y[S5]KRI[S5]YQLLSKQL (staple 2-6) [SAH-mAH2-2, stapled alpha-helix of mAH2]
[4]
  Kd: 97.7 nM

## YAKRI[S5]YQL[S5]SKQL (staple 6-10) [SAH-mAH2-3, stapled alpha-helix of mAH2]
[4]
  Kd: 10.5 nM

## [S5]AKRIFY[S5]LLSKQL (staple 1-8) [SAH-mAH2-4, stapled alpha-helix of mAH2]
[4]
  Kd: 25.8 nM
